Patent US20180155451A1 (published 2018)
Where two headings read alike, the source gives them in different places.

B1: GpH7-A5/GpH7-B78/GpL16-k0 (antibody, human IgG1, kappa)
heavy 1: not shown
heavy 2: QVQLVQSGAEVKKPGASVTVSCKASGYTFTDYEMHWIRQPPGEGLEWIGAIDPKTGDTAYSESFQDRVTLTADKSTSTAYMELSSLTSEDTAVYYCTRFYSYTYWGQGTLVTVSSASTKGPSVFPLAPSSKSTSGGTAALGCLVKDYFPEPVTVSWNSGALTSGVHTFPAVLQSSGLYSLSSVVTVPSSSLGTQTYICNVNHKPSNTKVDKKVEPKSCDKTHTCPPCPAPELLGGPDVFLFPPKPKDTLMISRTPEVTCVVVDVSHEDPEVKFNWYVDGVEVHNAKTKPREEQYNSTYRVVSVLTVLHQDWLNGKEYKCKVSNKALPLPEEKTISKAKGQPREPQVYTLPPSRDELTKNQVSLTCLVKGFYPSDIAVEWESNGQPENNYKTTPPVLDSDGSFFLYSKLTVDKSRWQQGNVFSCSVMHEALHNHYTQESLSLSP
light: DIVMTQSPLSLPVTPGEPASISCQASESLVHSNRNTYLHWYLQKPGQSPQLLIYKVSNRFSGVPDRFSGSGSGTDFTLKISRVEAEDVGVYYCSQNTHVPPTFGQGTKVEIERTVAAPSVFIFPPSDEQLKSGTASVVCLLNNFYPREAKVQWKVDNALQSGNSQESVTEQDSKDSTYSLSSTLTLSKADYEKHKVYACEVTHQGLSSPVTKSFNRGEC
notes: Heterodimerized anti-glypican-3 IgG1 variant
B2: GpH7-A53/GpH7-B78/GpL16-k0 (antibody, human IgG1, kappa)
heavy 1: QVQLVQSGAEVKKPGASVTVSCKASGYTFTDYEMHWIRQPPGEGLEWIGAIDPKTGDTAYSESFQDRVTLTADKSTSTAYMELSSLTSEDTAVYYCTRFYSYTYWGQGTLVTVSSASTKGPSVFPLAPSSKSTSGGTAALGCLVKDYFPEPVTVSWNSGALTSGVHTFPAVLQSSGLYSLSSVVTVPSSSLGTQTYICNVNHKPSNTKVDKKVEPKSCDKTHTCPPCPAPELLGGPDVFLFPPKPKDTLMISRTPEVTCVVVDVSHEDPEVKFNWYVDGVEVHNAKTKPREEQYNSTYRVVSVLTVLHQDWLNGKEYKCKVSNKALPAPIEKTISKAKGQPREPQVYTLPPSRKELTKNQVSLTCLVKGFYPSDIAVEWESNGQPENNYKTTPPVLDSDGSFFLYSKLTVDKSRWQQGNVFSCSVMHEALHNRYTQKSLSLSP
heavy 2: QVQLVQSGAEVKKPGASVTVSCKASGYTFTDYEMHWIRQPPGEGLEWIGAIDPKTGDTAYSESFQDRVTLTADKSTSTAYMELSSLTSEDTAVYYCTRFYSYTYWGQGTLVTVSSASTKGPSVFPLAPSSKSTSGGTAALGCLVKDYFPEPVTVSWNSGALTSGVHTFPAVLQSSGLYSLSSVVTVPSSSLGTQTYICNVNHKPSNTKVDKKVEPKSCDKTHTCPPCPAPELLGGPDVFLFPPKPKDTLMISRTPEVTCVVVDVSHEDPEVKFNWYVDGVEVHNAKTKPREEQYNSTYRVVSVLTVLHQDWLNGKEYKCKVSNKALPLPEEKTISKAKGQPREPQVYTLPPSRDELTKNQVSLTCLVKGFYPSDIAVEWESNGQPENNYKTTPPVLDSDGSFFLYSKLTVDKSRWQQGNVFSCSVMHEALHNHYTQESLSLSP
light: DIVMTQSPLSLPVTPGEPASISCQASESLVHSNRNTYLHWYLQKPGQSPQLLIYKVSNRFSGVPDRFSGSGSGTDFTLKISRVEAEDVGVYYCSQNTHVPPTFGQGTKVEIERTVAAPSVFIFPPSDEQLKSGTASVVCLLNNFYPREAKVQWKVDNALQSGNSQESVTEQDSKDSTYSLSSTLTLSKADYEKHKVYACEVTHQGLSSPVTKSFNRGEC
notes: as for B1
B3: GpH7-A57/GpH7-B78/GpL16-k0 (antibody, human IgG1, kappa)
heavy 1: QVQLVQSGAEVKKPGASVTVSCKASGYTFTDYEMHWIRQPPGEGLEWIGAIDPKTGDTAYSESFQDRVTLTADKSTSTAYMELSSLTSEDTAVYYCTRFYSYTYWGQGTLVTVSSASTKGPSVFPLAPSSKSTSGGTAALGCLVKDYFPEPVTVSWNSGALTSGVHTFPAVLQSSGLYSLSSVVTVPSSSLGTQTYICNVNHKPSNTKVDKKVEPKSCDKTHTCPPCPAPELLGGPDVFLFPPKPKDTLMISRTPEVTCVVVDVSHEDPEVKFNWYVDGVEVHNAKTKPREEQYNSTYRVVSVLTVLHQDWLNGKEYKCKVSNKALPLPEEKTISKAKGQPREPQVYTLPPSRKELTKNQVSLTCLVKGFYPSDIAVEWESNGQPENNYKTTPPVLDSDGSFFLYSKLTVDKSRWQQGNVFSCSVMHEALHNRYTQKSLSLSP
heavy 2: QVQLVQSGAEVKKPGASVTVSCKASGYTFTDYEMHWIRQPPGEGLEWIGAIDPKTGDTAYSESFQDRVTLTADKSTSTAYMELSSLTSEDTAVYYCTRFYSYTYWGQGTLVTVSSASTKGPSVFPLAPSSKSTSGGTAALGCLVKDYFPEPVTVSWNSGALTSGVHTFPAVLQSSGLYSLSSVVTVPSSSLGTQTYICNVNHKPSNTKVDKKVEPKSCDKTHTCPPCPAPELLGGPDVFLFPPKPKDTLMISRTPEVTCVVVDVSHEDPEVKFNWYVDGVEVHNAKTKPREEQYNSTYRVVSVLTVLHQDWLNGKEYKCKVSNKALPLPEEKTISKAKGQPREPQVYTLPPSRDELTKNQVSLTCLVKGFYPSDIAVEWESNGQPENNYKTTPPVLDSDGSFFLYSKLTVDKSRWQQGNVFSCSVMHEALHNHYTQESLSLSP
light: DIVMTQSPLSLPVTPGEPASISCQASESLVHSNRNTYLHWYLQKPGQSPQLLIYKVSNRFSGVPDRFSGSGSGTDFTLKISRVEAEDVGVYYCSQNTHVPPTFGQGTKVEIERTVAAPSVFIFPPSDEQLKSGTASVVCLLNNFYPREAKVQWKVDNALQSGNSQESVTEQDSKDSTYSLSSTLTLSKADYEKHKVYACEVTHQGLSSPVTKSFNRGEC
notes: the chains differ only in D356K/H435R against K439E

Key:
[1] = molecular target: T1, FcγRIIIa extracellular domain with C-terminal His tag (human, UniProt P08637 17-208); assay: SPR (Biacore), ratio of KD values for FcγRIIIa
T1 construct: extracellular domain; also called FcgRIIIa; CD16A
T1 sequence (P08637 17-208): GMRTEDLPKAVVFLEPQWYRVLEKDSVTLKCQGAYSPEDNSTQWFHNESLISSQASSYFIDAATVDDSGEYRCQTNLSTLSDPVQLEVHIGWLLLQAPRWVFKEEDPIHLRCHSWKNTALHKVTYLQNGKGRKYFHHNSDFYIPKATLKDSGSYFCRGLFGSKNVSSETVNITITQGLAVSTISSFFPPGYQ
Protocol: (§1) To assess this hypothesis, GpH7-A53 (SEQ ID NO: 42) resulting from the introduction of S239D into GpH7-A5 was constructed, and, this is combined with GpH7-B78 introduced with S239D, A330L, and I332E, and the expression and preparation were performed according to the method described in Reference Example 1. The effect of the combination of S239D and S239D, A330L, and I332E was assessed by comparing the FcγRIIIa binding between the heterodimerized and homodimerized antibodies with S239D, A330L, and I332E according to the method described in Reference Example 2 (Table 14).
(§2) Analysis of interaction between objective antibody and the FcγR was carried out using Biacore T100 (GE Healthcare). HBS-EP+ (GE Healthcare) was used as the running buffer, and the measurement temperature was set to 25° C. Chips produced by immobilizing the antigen peptide by the amine coupling method to a Series S Sencor Chip CM5 (GE Healthcare), or alternatively, chips produced by allowing preliminarily biotinylated antigen peptides to interact with and immobilize onto a Series S Sensor Chip SA (certified) (GE Healthcare) were used. Antibodies of interest were captured onto an antigen peptide-immobilized chip, and allowed to interact to each FcγR diluted with running buffer. To regenerate and repeatedly use the chip, the antibodies captured on the chip were washed off by reacting 10 mM glycine-HCl, pH 1.5.

[2] = molecular target: T1, FcγRIIIa extracellular domain with …; assay: SPR (Biacore), antibody captured, FcγRIIIa as analyte, 1:1 Langmuir kinetic fit
Protocol: as §1, §2
(§3) The FcγR-binding activity of each antibody was assessed primarily using as an indicator the FcγR-binding activity and dissociation constant for FcγR.

[3] = molecular target: T1, FcγRIIIa extracellular domain with …; assay: SPR (Biacore), ratio of KD values for FcγRIIIa; remark: listed apart in the source
Source text: GpH7-A57 (SEQ ID NO: 40) resulting from the introduction of all of S239D, A330L, and I332E into GpH7-A5; GpH7-B78 (SEQ ID NO: 41) resulting from the introduction of all of S239D, A330L, and I332E into GpH7-B3; GpH7-TA7 (SEQ ID NO: 31) resulting from the introduction of all of L234Y, G236W, and S298A into GpH7-A5; and GpH7-TA45 (SEQ ID NO: 32) resulting from the introduction of all of L234Y, G236W, and S298A into GpH7-B3. […] The prepared antibodies were compared for the FcγRIIIa-binding activity using, as an indicator, KD for FcγRIIIa that was determined according to the method described in Reference Example 2.
as §2

[4] = molecular target: T1, FcγRIIIa extracellular domain with …; assay: SPR (Biacore), antibody captured, FcγRIIIa as analyte, 1:1 Langmuir kinetic fit; remark: listed apart in the source
Protocol: The prepared antibodies were compared for the FcγRIIIa-binding activity using, as an indicator, KD for FcγRIIIa that was determined according to the method described in Reference Example 2.
as §2, §3

Binder | KD ratio (KD of GpH7-A5/GpH7-B78/GpL16-k0 divided by KD of the antibody) [1] [fold] | Kd [2] [nM] | KD ratio 1 (KD of GpH7-G1d/GpL16-k0 divided by KD of the antibody) [3] [fold] | KD ratio 2 (KD of GpH7-A5/GpH7-B3/GpL16-k0 divided by KD of the antibody) [3] [fold] | Kd [4] [nM]
B1 | 1 | 54 | 23 | 30 | 54
B2 | 4.9 | 11 | – | – | –
B3 | 8.7 | 6.2 | 199 | 263 | 6.2
